The assay addresses T1, Phl p 5.0101 (timothy grass).
T1 construct: Phl p 5.0101, major group 5 pollen allergen of timothy grass; The SPR methods say only 'Phl p 5 antigen'; also called major timothy grass pollen allergen Phl p 5; group 5 allergen; source: bought: Biomay, Vienna, Austria
T1 chain: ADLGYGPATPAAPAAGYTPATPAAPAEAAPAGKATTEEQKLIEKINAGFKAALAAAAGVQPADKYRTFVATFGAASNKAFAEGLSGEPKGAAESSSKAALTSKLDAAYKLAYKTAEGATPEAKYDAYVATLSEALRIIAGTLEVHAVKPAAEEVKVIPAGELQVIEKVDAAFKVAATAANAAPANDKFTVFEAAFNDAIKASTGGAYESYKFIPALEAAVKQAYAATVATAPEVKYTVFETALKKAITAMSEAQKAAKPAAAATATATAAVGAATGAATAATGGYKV
Description: SPR; Biacore 1K+; purified IgG captured (about 100 RU) on anti-human IgG (Fc) on a CM5 chip; Phl p 5 injected at 1.875-60 nM, 25 uL/min, 120 s, 1360 s dissociation; PBS with 0.02% Tween 20; 1:1 Langmuir model. Particulars: both partners purified. (SPR reads the build-up and loss of mass on a sensor chip optically.)

B1: 212579 E38HS, G62HS (antibody, V domains shown)
VH: EVQLVESGGGLVQPGGSLRLSCAASGFTFSSYSMTWVRQAPGKGLEWISYISSSSSTIYYADSVKGRFTISRDNAKNSLYLQMNSLRAEDTAVYYCARDLRWGVMDNYYYHGMDVWGQGTTVTVSS
VL: EIVLTQSPGTLSLSPGERATLSCRASQSISSSYLTWYQQKPGQAPRLLIYGASSRATGIPDRFSGSGSGTDFTLTISRLEPEDFAVYYCQQYVSSLITFGQGTRLEIK
notes: numbers count on: IMGT numbering; as the VL of m2; IgG1, kappa; also called E38HS G62HS substituted antibody; source: Expi293F, transfected, purified (Protein A magnetic beads)
A word on the Kd: it is a measure of binding affinity in units of concentration. The term koff denotes a measure of how fast the partners let go of each other. The kon is the second-order rate constant of association. A low value points to slow association. Regarding B1, the Kd worked out at 19.6 nM, the koff stood at 0.00262 s⁻¹ and the kon stood at 130000 M⁻¹ s⁻¹.

B2: inferred unmutated common ancestor (UCA) of antibody 212579 (antibody, V domains shown)
VH: EVQLVESGGGLVQPGGSLRLSCAASGFTFSSYEMNWVRQAPGKGLEWVSYISSSGSTIYYADSVKGRFTISRDNAKNSLYLQMNSLRAEDTAVYYCARDLRWGVMDNYYYYGMDVWGQGTTVTVSS
VL: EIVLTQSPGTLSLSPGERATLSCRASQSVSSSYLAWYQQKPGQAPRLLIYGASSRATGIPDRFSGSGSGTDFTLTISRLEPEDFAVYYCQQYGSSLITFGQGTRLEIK
notes: equals the inferred UCA heavy chain variable domain (GenBank PV255645, PV255646 for the two chains); numbers count on: IMGT numbering; equals the inferred UCA light chain variable domain (GenBank PV255645, PV255646 for the two chains); IgG1, kappa; also called inferred UCA; source: Expi293F, transfected, purified (Protein A magnetic beads)
In turn, B2 returned a Kd of 8.5 nM, a koff of 0.00051 s⁻¹ and an on-rate constant (kon) of 60000 M⁻¹ s⁻¹.

For the origin of these results see PMC12259648 (Frontiers in Immunology, 2025).
